{"source": "patent US6835382B2", "about": "“Ii peptide therapeutics to enhance antigen presentation” (University of Massachusetts, priority 1996, dated 2004)", "biological_target": "T1, murine E^d MHC class II allele (Mus musculus, UniProt P01904+P01915)", "T1 sequence (P01904 26-255)": "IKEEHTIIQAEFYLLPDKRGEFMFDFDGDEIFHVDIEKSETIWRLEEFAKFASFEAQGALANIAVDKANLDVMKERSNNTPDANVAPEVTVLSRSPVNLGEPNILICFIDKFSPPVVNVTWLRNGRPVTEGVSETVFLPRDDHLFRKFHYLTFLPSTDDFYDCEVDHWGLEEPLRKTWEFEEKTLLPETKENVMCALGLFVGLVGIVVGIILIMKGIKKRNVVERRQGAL", "T1 sequence (P01915 27-264 limits assumed)": "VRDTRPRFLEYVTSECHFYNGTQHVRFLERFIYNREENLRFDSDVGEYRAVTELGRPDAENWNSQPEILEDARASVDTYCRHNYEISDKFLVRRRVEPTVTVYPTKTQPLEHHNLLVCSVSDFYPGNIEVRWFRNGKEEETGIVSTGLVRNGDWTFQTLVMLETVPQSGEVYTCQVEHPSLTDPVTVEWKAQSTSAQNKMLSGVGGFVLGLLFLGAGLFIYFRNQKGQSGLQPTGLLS", "assay": "processed antigen assay, E^d allele (APC pulsed with native HEL)", "type": "cell-based", "set-up": "The A20 and CH27 B cell lymphoma lines express H-2^d and H-2^k alleles, respectively; endogenous in cells; host or cells: A20 B cell lymphoma (mitomycin C-treated or paraformaldehyde-fixed)", "details": "AE peptide 64 μM; for T cell response relative to baseline (None = 1.00), E^d: Table 31; for T cell response relative to baseline (None = 1.0), 5 μM HEL E^d, first value / T cell response relative to baseline (None = 1.0), 5 μM HEL E^d, second value / T cell response relative to baseline (None = 1.0), 10 μM HEL E^d, first value / T cell response relative to baseline (None = 1.0), 10 μM HEL E^d, second value / T cell response relative to baseline (None = 1.0), 20 μM HEL E^d, first value / T cell response relative to baseline (None = 1.0), 20 μM HEL E^d, second value: Table 29; for T cell response relative to baseline (None = 1.0), 5 μM HEL E^d, first value / T cell response relative to baseline (None = 1.0), 5 μM HEL E^d, second value: native HEL prepulse 5 μM; for T cell response relative to baseline (None = 1.0), 5 μM HEL E^d, first value / T cell response relative to baseline (None = 1.0), 10 μM HEL E^d, first value / T cell response relative to baseline (None = 1.0), 20 μM HEL E^d, first value: supernatant dilution 1:4 (first value); for T cell response relative to baseline (None = 1.0), 5 μM HEL E^d, second value / T cell response relative to baseline (None = 1.0), 10 μM HEL E^d, second value / T cell response relative to baseline (None = 1.0), 20 μM HEL E^d, second value: supernatant dilution 1:8 (second value)", "procedure": "In a third type of assay, the “processed antigen assay”, certain of the AE101 series of peptides inhibit stimulation of specific T cell hybridomas by antigenic peptides which are derived from the endogenous processing of a native protein antigen. This assay, which is related to the peptide prepulse assay, is performed by incubating APC with native protein antigen for 8 h, after which the pulsed APC are washed and treated with mitomycin C. Those pulsed APC are then combined with AE101 series peptides and T cell hybridomas and are incubated for 24 h. After that incubation, an aliquot of the culture supernatant is transferred to a second culture to measure T cell stimulation, as reflected in the effect of released interleukins on the growth of an interleukin-dependent, indicator cell line. During the 8 h incubation with native protein antigen, the protein antigen is taken into the APC. The native protein enters the processing pathway within the APC, where it is enzymatically cleaved to peptide fragments. Those peptide fragments with high affinity for the particular MHC class II molecules produced by the APC form antigenic peptide/MHC class II complexes which are transported to the cell surface. At the cell surface, the MHC class II molecules are contacted by the AE101 peptides, which cause the release of the antigenic peptide by the same mechanism proposed for the “peptide prepulse” assay above.\nThe “processed antigen assay” was carried out under essentially the same conditions as the “peptide prepulse assay”, with the following modifications. Untreated APC were incubated at 1×10^6/mL in 24-well plates (1 mL/well) with native protein antigen for 8 h. Following that incubation, the pulsed APC were washed, treated with mitomycin C, and washed again. AE101 series peptide was added at 64 μM, 16 μM, 4 μM, and 1 μM concentrations for 24 h in the presence of the T cell hybridoma specific for the antigenic peptide. Interleukin release from these cultures was measured by proliferation of HT-2 cells to interleukins in supernatants transferred from the primary culture. The baseline T cell response was measured by culturing T hybridoma cells with the native antigen-prepulsed APC in the absence of AE101 series peptides.\nThe “processed antigen assay” was carried out under essentially the same conditions as the “peptide prepulse” assay, with the following modifications. Untreated APC were incubated at 1×10^6/mL in 24-well plates (1 mL/well) with native protein antigen for 8 h. Following incubation, the pulsed APC were washed, treated with mitomycin C, and were washed again. The assay conditions were then as described for “peptide prepulse” above. The baseline T cell response was measured by culturing T hybridoma cells with the native antigen-prepulsed APC in the absence of AE101 peptides.\nTable 2.9: Activities of substitution series at Leucine^80 in AE114 in a processed antigen assay. […] The results in this assay constitute, relatively, a mirror image of the result in the simultaneous assay (Example 1, Table 7) and parallel those of the antigenic peptide prepulse assay (Example 5, Table 24). Untreated APC were incubated with native HEL, instead of antigenic peptide, for 8 h. After incubation, the pulsed cells were washed and mitomycin C treated before being cocultured with AE-peptides and T cell hybridomas. Wells containing only T cells and native HEL-prepulsed APC were used to determine the Baseline response, or 1, in the absence of AE peptides. The concentration of AE peptide used was 64 μM for these assays. The supernatant dilutions used in the HT-2 cell assay were 1:4 (first value) and 1:8 (second value).", "key": {"[1]": {"details": "Table 32, native HEL prepulse 20 μM, supernatant dilution 1:4"}, "[2]": {"details": "native HEL prepulse 10 μM, supernatant dilution 1:4"}, "[3]": {"details": "Table 30, native HEL prepulse 10 μM, supernatant dilution 1:8"}}, "note": "Non-standard residues stand in square brackets, D forms with d. hArg = N=C(N)NCCCC[C@H](N)C(=O)O; Cit = NC(=O)NCCC[C@H](N)C(=O)O; Orn = NCCC[C@H](N)C(=O)O", "data": [{"substance": "Ac-LRMKLP N-NH2 (Ac-LRMKLPN-NH2) [AE246]", "values": [{"measurement": "T cell response relative to baseline (None = 1.0), E^d", "setting": "[1]", "value": 0.72}]}, {"substance": "Ac-LRNKNPK-NH2 [AE349]", "values": [{"measurement": "T cell response relative to baseline (None = 1.00), E^d", "setting": "[2]", "value": 0.64}]}, {"substance": "Ac-Y[hArg]MKLPKSAK-NH2 [AE132]", "values": [{"measurement": "T cell response relative to baseline (None = 1.0), E^d", "setting": "[1]", "value": 0.48}]}, {"substance": "Ac-L[Cit]MKNPK-NH2 [AE342]", "values": [{"measurement": "T cell response relative to baseline (None = 1.00), E^d", "setting": "[2]", "value": 0.64}]}, {"substance": "Ac- (mL) RMKLPK-NH2 [AE174]", "values": [{"measurement": "T cell response relative to baseline (None = 1.0), E^d", "setting": "[3]", "value": 0.86}]}, {"substance": "Ac-LRMKLP F-NH2 (Ac-LRMKLPF-NH2) [AE248]", "values": [{"measurement": "T cell response relative to baseline (None = 1.00), E^d", "setting": "[2]", "value": 0.30}]}, {"substance": "Ac-LR (mL) KYPK-NH2 [AE303]", "values": [{"measurement": "T cell response relative to baseline (None = 1.0), E^d", "setting": "[3]", "value": 0.82}]}, {"substance": "Ac-LRLKYPk-NH2 [AE307]", "values": [{"measurement": "T cell response relative to baseline (None = 1.0), E^d", "setting": "[3]", "value": 0.48}]}, {"substance": "Ac-LRMK Q PK-NH2 (Ac-LRMKQPK-NH2) [AE233]", "values": [{"measurement": "T cell response relative to baseline (None = 1.0), 5 μM HEL E^d, first value", "value": "0.48,"}, {"measurement": "T cell response relative to baseline (None = 1.0), 5 μM HEL E^d, second value", "value": 0.36}, {"measurement": "T cell response relative to baseline (None = 1.0), 10 μM HEL E^d, first value", "setting": "native HEL prepulse 10 μM", "value": "0.53,"}, {"measurement": "T cell response relative to baseline (None = 1.0), 10 μM HEL E^d, second value", "setting": "native HEL prepulse 10 μM", "value": 0.47}, {"measurement": "T cell response relative to baseline (None = 1.0), 20 μM HEL E^d, first value", "setting": "native HEL prepulse 20 μM", "value": "0.74,"}, {"measurement": "T cell response relative to baseline (None = 1.0), 20 μM HEL E^d, second value", "setting": "native HEL prepulse 20 μM", "value": 0.68}]}, {"substance": "Ac-LR[Orn]KLPK-NH2 [AE195]", "values": [{"measurement": "T cell response relative to baseline (None = 1.00), E^d", "setting": "[2]", "value": 0.31}]}, {"substance": "Ac-LR (mL) KyPK-NH2 [AE304]", "values": [{"measurement": "T cell response relative to baseline (None = 1.0), E^d", "setting": "[3]", "value": 0.77}]}, {"substance": "Ac-LRLKYPK-NH2 [AE301]", "values": [{"measurement": "T cell response relative to baseline (None = 1.0), E^d", "setting": "[3]", "value": 0.19}, {"measurement": "T cell response relative to baseline (None = 1.00), E^d", "setting": "[2]", "value": 0.46}, {"measurement": "T cell response relative to baseline (None = 1.0), E^d", "setting": "[1]", "value": 0.54}]}, {"substance": "Ac-LR N KLPK-NH2 (Ac-LRNKLPK-NH2) [AE202]", "values": [{"measurement": "T cell response relative to baseline (None = 1.00), E^d", "setting": "[2]", "value": 0.76}]}, {"substance": "Ac-LRMK H PK-NH2 (Ac-LRMKHPK-NH2) [AE228]", "values": [{"measurement": "T cell response relative to baseline (None = 1.0), 5 μM HEL E^d, first value", "value": "0.35,"}, {"measurement": "T cell response relative to baseline (None = 1.0), 5 μM HEL E^d, second value", "value": 0.45}, {"measurement": "T cell response relative to baseline (None = 1.0), 10 μM HEL E^d, first value", "setting": "native HEL prepulse 10 μM", "value": "0.41,"}, {"measurement": "T cell response relative to baseline (None = 1.0), 10 μM HEL E^d, second value", "setting": "native HEL prepulse 10 μM", "value": 0.41}, {"measurement": "T cell response relative to baseline (None = 1.0), 20 μM HEL E^d, first value", "setting": "native HEL prepulse 20 μM", "value": "0.71,"}, {"measurement": "T cell response relative to baseline (None = 1.0), 20 μM HEL E^d, second value", "setting": "native HEL prepulse 20 μM", "value": 0.61}]}, {"substance": "Ac-Y[Cit]MKLPKSAK-NH2 [AE131]", "values": [{"measurement": "T cell response relative to baseline (None = 1.00), E^d", "setting": "[2]", "value": 0.49}]}, {"substance": "Ac-ARNKNPF-NH2 [AE347]", "values": [{"measurement": "T cell response relative to baseline (None = 1.00), E^d", "setting": "[2]", "value": 0.80}]}, {"substance": "Ac-LRMKLP[Cit]-NH2 [AE241]", "values": [{"measurement": "T cell response relative to baseline (None = 1.0), E^d", "setting": "[1]", "value": 0.63}]}, {"substance": "Ac-ARNKNPK-NH2 [AE346]", "values": [{"measurement": "T cell response relative to baseline (None = 1.00), E^d", "setting": "[2]", "value": 0.78}]}, {"substance": "Ac-LR L KLPK-NH2 (Ac-LRLKLPK-NH2; not fully specified; printed as Ac-LR L KLPK-NH2) [AE206]", "values": [{"measurement": "T cell response relative to baseline (None = 1.0), E^d", "setting": "[3]", "value": 0.22}, {"measurement": "T cell response relative to baseline (None = 1.00), E^d", "setting": "[2]", "value": 0.41}, {"measurement": "T cell response relative to baseline (None = 1.0), E^d", "setting": "[1]", "value": 0.46}]}, {"substance": "Ac-LRMK HArg PK-NH2 (Ac-LRMK[hArg]PK-NH2; SMILES CSCC[C@H](NC(=O)[C@H](CCCNC(=N)N)NC(=O)[C@H](CC(C)C)NC(C)=O)C(=O)N[C@@H](CCCCN)C(=O)N[C@@H](CCCCNC(=N)N)C(=O)N1CCC[C@H]1C(=O)N[C@@H](CCCCN)C(N)=O) [AE227]", "values": [{"measurement": "T cell response relative to baseline (None = 1.0), 5 μM HEL E^d, first value", "value": "0.18,"}, {"measurement": "T cell response relative to baseline (None = 1.0), 5 μM HEL E^d, second value", "value": 0.33}, {"measurement": "T cell response relative to baseline (None = 1.0), 10 μM HEL E^d, first value", "setting": "native HEL prepulse 10 μM", "value": "0.18,"}, {"measurement": "T cell response relative to baseline (None = 1.0), 10 μM HEL E^d, second value", "setting": "native HEL prepulse 10 μM", "value": 0.19}, {"measurement": "T cell response relative to baseline (None = 1.0), 20 μM HEL E^d, first value", "setting": "native HEL prepulse 20 μM", "value": "0.45,"}, {"measurement": "T cell response relative to baseline (None = 1.0), 20 μM HEL E^d, second value", "setting": "native HEL prepulse 20 μM", "value": 0.36}, {"measurement": "T cell response relative to baseline (None = 1.00), E^d", "setting": "[2]", "value": 0.35}]}, {"substance": "Ac-ARMKLPKSAK-NH2 [AE120]", "values": [{"measurement": "T cell response relative to baseline (None = 1.00), E^d", "setting": "[2]", "value": 0.51}]}]}
